Test [1] has as its target T1, MBP-Ync13-(591–1130)-6His (S. pombe, UniProt O13683 591-1130).
T1 construct: The cloning of this fragment is not described; not shown: MBP, N-terminal, kept; His6, C-terminal, kept
T1 sequence (looked up): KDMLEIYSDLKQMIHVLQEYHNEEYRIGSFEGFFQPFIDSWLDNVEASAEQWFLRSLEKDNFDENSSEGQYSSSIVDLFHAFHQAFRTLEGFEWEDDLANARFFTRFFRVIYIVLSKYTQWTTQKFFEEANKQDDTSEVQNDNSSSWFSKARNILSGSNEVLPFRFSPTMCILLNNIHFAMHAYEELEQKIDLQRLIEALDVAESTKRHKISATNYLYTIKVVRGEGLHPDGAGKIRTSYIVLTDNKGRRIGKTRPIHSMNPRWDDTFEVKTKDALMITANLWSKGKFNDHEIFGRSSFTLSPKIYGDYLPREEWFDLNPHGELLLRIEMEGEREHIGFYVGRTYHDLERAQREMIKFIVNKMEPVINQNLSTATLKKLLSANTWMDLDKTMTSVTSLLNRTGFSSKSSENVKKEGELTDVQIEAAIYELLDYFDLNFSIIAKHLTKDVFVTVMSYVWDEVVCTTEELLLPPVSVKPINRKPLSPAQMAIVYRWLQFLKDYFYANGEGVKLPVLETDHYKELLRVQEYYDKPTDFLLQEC
Put plainly: pull-down; Kd by depletion of the supernatant: various concentrations of MBP-Ync13 proteins immobilised on amylose beads with a fixed low concentration of Pmo25-(19–329)-6His, 1 h at 4°C; supernatant on SDS-PAGE, Coomassie Blue; one site binding equation. The following applies: both partners purified.

Test [2] has as its target T2, MBP-Ync13-full length-6His (S. pombe, UniProt O13683 1-1237).
T2 construct: cloned in pET21a-MBP between the MBP-TEV-GGSGGS fragment and the C-terminal 6xHis tag; A TEV site and a GGSGGS linker stand between MBP and Ync13; also called MBP-tagged full length Ync13; not shown: MBP, N-terminal, kept; His6, C-terminal, kept
T2 sequence (looked up): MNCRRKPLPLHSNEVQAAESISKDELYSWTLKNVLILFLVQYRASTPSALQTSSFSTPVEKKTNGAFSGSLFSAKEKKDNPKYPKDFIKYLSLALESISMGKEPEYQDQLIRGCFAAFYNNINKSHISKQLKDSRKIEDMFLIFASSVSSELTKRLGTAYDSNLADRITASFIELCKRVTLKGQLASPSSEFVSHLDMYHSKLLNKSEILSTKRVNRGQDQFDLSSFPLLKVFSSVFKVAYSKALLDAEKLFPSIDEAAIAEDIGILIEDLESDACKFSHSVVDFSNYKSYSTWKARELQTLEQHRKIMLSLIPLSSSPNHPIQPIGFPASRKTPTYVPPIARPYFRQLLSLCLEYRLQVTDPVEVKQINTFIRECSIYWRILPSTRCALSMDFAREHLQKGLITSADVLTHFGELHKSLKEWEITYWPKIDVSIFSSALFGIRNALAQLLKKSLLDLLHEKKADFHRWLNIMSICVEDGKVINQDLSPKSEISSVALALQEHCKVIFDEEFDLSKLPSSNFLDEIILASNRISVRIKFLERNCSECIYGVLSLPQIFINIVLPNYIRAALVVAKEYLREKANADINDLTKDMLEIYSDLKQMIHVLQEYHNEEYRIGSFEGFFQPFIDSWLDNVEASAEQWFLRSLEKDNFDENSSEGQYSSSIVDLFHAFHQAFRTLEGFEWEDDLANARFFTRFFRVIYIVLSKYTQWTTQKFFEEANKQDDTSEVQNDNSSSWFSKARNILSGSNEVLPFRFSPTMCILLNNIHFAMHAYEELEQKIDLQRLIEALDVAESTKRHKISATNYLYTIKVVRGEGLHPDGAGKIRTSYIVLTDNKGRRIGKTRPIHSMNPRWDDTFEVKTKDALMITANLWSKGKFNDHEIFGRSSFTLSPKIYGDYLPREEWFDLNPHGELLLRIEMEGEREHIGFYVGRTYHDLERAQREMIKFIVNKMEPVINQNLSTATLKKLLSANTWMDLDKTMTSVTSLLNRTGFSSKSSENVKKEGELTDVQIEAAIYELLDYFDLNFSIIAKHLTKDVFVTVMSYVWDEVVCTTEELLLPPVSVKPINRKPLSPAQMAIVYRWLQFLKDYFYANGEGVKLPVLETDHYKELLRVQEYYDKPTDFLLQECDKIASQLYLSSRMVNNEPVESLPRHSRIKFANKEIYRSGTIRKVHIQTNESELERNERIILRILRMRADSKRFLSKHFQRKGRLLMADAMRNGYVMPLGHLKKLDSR
Described as above. The settings on record: both partners purified.

Usually Kd stands for the free concentration of one partner at which half of the binding sites on the other are occupied at equilibrium, for simple one-to-one binding. A high value points to lower affinity.

B1: Pmo25-(19–329)-6His (domain or fragment, S. pombe, UniProt Q9P7Q8 19-329, looked up)
chain: LCDNLPKLEINNDKKKSFEEVSKCLQNLRVSLCGTAEVEPDADLVSDLSFQIYQSNLPFLLVRYLPKLEFESKKDTGLIFSALLRRHVASRYPTVDYMLAHPQIFPVLVSYYRYQEVAFTAGSILRECSRHEALNEVLLNSRDFWTFFSLIQASSFDMASDAFSTFKSILLNHKSQVAEFISYHFDEFFKQYTVLLKSENYVTKRQSLKLLGEILLNRANRSVMTRYISSAENLKLMMILLRDKSKNIQFEAFHVFKLFVANPEKSEEVIEILRRNKSKLISYLSAFHTDRKNDEQFNDERAFVIKQIERL
notes: in pET21a between the N-terminal T7 tag and the C-terminal 6xHis tag; not shown: His6, C-terminal, kept
Take B1: the values for the Kd in test [1] and in test [2] were 620 nM and 490 nM, respectively.
